The values that follow come from paper PMC7277749, “Evaluation of Aptamers as Affinity Reagents for an Enhancement of SRM-Based Detection of Low-Abundance Proteins in Blood Plasma”.

This series deals with SMAD4 (rSMAD4) (UniProt Q13485 1-552). The series can be described thus: MST; 100 nM aptamer; FAM label inferred for MST; MST: 20 mM Tris-HCl pH 7.4, 5 mM KCl, 500 mM NaCl, temperature not stated; pull-down: plasma diluted twice with 10 mM Tris-HCl pH 7.4, 150 mM NaCl plus 0.85 M NaCl, RT, 30 min. The following applies: protein: recombinant; tags: N-terminal His6; label: 3'-FAM; hairpin, 16 bp stem, TTTT loop, 3' A5 tail.

The Kd is the concentration at which binding is half-saturated.

Chain of SMAD4 (rSMAD4) (Q13485 whole entry): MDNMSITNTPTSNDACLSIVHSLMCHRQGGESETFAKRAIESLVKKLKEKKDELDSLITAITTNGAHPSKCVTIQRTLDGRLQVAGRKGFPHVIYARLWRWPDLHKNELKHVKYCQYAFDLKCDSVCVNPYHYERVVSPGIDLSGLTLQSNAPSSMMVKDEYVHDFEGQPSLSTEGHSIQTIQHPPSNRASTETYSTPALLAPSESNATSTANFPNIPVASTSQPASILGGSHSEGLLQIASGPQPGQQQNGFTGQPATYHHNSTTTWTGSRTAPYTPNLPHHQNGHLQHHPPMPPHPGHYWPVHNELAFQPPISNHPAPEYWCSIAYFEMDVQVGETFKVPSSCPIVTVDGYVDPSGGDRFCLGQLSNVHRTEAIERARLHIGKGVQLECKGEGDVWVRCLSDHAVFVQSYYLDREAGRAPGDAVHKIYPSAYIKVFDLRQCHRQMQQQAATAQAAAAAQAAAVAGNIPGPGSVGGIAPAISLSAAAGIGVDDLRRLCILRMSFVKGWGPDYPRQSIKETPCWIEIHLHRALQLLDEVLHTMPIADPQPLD

B1: Anti-SMAD4 aptamer, 3'-FAM (structured_DNA)
DNA: CGAAGTCTAGACAGCGTTTTCGCTGTCTAGACTTCGAAAAA
For B1, the Kd came out at 45 ± 7 nM.
